The RNAGym collection of RNA variant scans (doi:10.1073/pnas.2313332121)

B1: TPR t1 (parent)
chain: GACCAAUCUGCCCUCAGAGCUCGAGAACAUCUUCGGAUGCAGAGGAGGCAGGCUUCGGUGGCGCGAUAGCGCCAACGUCCUCAACCUCCAAUGCAUCCCACCACAUGAUGAUGCCUGAAGAGCCUUGGUUUUUUG

Variants of: B1
Test: polymerase ribozyme fitness, log enrichment relative to wild type (log ratio); higher = more active; in vitro selection for triplet polymerase activity
Procedure, shortened: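 PCR was used to build mutant libraries for each subunit of a heterodimeric triplet polymerase ribozyme, which were then transcribed. A single in vitro selection round, in triplicate, used a frozen incubation at −7 °C and recovered extended constructs by gel excision, streptavidin beads and RT-PCR. Fitness is the logarithm of genotype enrichment relative to wild-type enrichment, averaged over replicates with inverse-variance weights. The logarithm is base 2, and after Illumina sequencing only genotypes with ≥10 input reads and ≥1 read per output were kept.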

Row | Variant | polymerase ribozyme fitness (log ratio)
1 | A16U C62A A105C | -4.73
2 | A16U C62G C123A | -3
3 | A16U C72A | -1.32
4 | A16U C73A | -2.64
5 | A16U C73U A121C | 0.586
6 | A16U C73U G93C U96A | -4.76
7 | A16U C79U G110A | -2.61
8 | A16U C82A | -2.02
9 | A16U C89U | -1.23
10 | A16U C102A | -3.35
11 | A16U C123A | -1.57
12 | A16U C123U | 0.19
13 | A16U C124A | -0.305
14 | A16U G17A G93A | -4.25
15 | A16U G17A G117A | -2.04
16 | A16U G23U G61A A84C C114A G117U | -6.96
17 | A16U G42U C53G G71A G120A | -2.89
18 | A16U G47C C49U G61C C82G C89U A91G C115A | -7.61
19 | A16U G47C G71U | -4.17
20 | A16U G47U G60U U112G | -1.75
21 | A16U G52U G117A U130C U131G | -4.01
22 | A16U G60C | -2.17
23 | A16U G69U A121C | 1.22
24 | A16U G69U G71U G117C | -4.04

Row | Variant | polymerase ribozyme fitness (log ratio)
25 | A16U G110A | -2.07
26 | A16U G113A | -3.61
27 | A16U U32A A46U A103C A111G | -5.71
28 | A16U U59G G69A U96C | -4.5
29 | A16U U92A A111C | -4.66
30 | A16U U116C | -0.734
31 | G17A A37U A50C | -4.99
32 | G17A A43G | -3.39
33 | G17A A43U C73G G120A | -3.38
34 | G17A A43U C88A U96A U129A | -3.98
35 | G17A A46C | -3.18
36 | G17A A46C G63U A74U C89G C102U A105U | -7.26
37 | G17A A75G C89A A90G | -3.23
38 | G17A A90C | -3.17
39 | G17A A90C C101A C114G | -5.04
40 | G17A A91C G93C G120C U131C | -1.37
41 | G17A A95U | -3.81
42 | G17A C20A G61C A119U C124A | -5.19
43 | G17A C20U G57C G61A | -4.32
44 | G17A C40U | -3.88
45 | G17A C49G A50G U106A | -3.86
46 | G17A C53A A90G A95U | -3.77
47 | G17A C53A C104U U133A | -2.46
48 | G17A C53A C124G | -0.146

Row | Variant | polymerase ribozyme fitness (log ratio)
49 | G17A C53U C89U C101A U109G | -6.85
50 | G17A C70U | -3.03
51 | G17A C79U U106A A111C | -4.21
52 | G17A C80A | -5.66
53 | G17A C80U | -3.53
54 | G17A C86G | -4.48
55 | G17A G39U G113C | -6.88
56 | G17A G42U G57A G120C | -3.79
57 | G17A G48C | -4.15
58 | G17A G48U G69C C88G | -5.4
59 | G17A G52C G60C U81C C115G | -3.56
60 | G17A G60U C79A | -5.25
61 | G17A G60U C97U | -4.13
62 | G17A G61A C114G C124A | -3.95
63 | G17A G61U C85A C97U | -4.18
64 | G17A G63A | -4.79
65 | G17A G63U A90C U112A | -5.03
66 | G17A G63U U133C | -3.8
67 | G17A G69A C102U C114G U131G | -6.68
68 | G17A G69C | -3.95
69 | G17A G71U | -3.07
70 | G17A G71U G122A | -4.15
71 | G17A G120U | -1.62
72 | G17A U54C G120U | -1.75

Row | Variant | polymerase ribozyme fitness (log ratio)
73 | G17A U55G C123A | -2.36
74 | G17A U78C | -3.04
75 | G17A U116C | -3.7
76 | G17A U116C G120U | -5.7
77 | G17C A18U C40U C56G C70G A108G A111U | -7.19
78 | G17C A41U U130A | -4.18
79 | G17C A43C A83U | -6.26
80 | G17C A46G C124A | -1.43
81 | G17C A46G U55C | -5.15
82 | G17C A50C U81A C114U G120U | -5.67
83 | G17C C20A G63U | -4.87
84 | G17C C72U C88A | -4.4
85 | G17C C72U U78G U116A A119C G120A | -5.61
86 | G17C G35A C123G G128U | -4.31
87 | G17C G47A A95U | -5.58
88 | G17C G63U | -4.39
89 | G17C G77U A91U C123A U132A | -3.88
90 | G17C U21A G39A C72A U112C C115A | -0.984
91 | G17C U38G C70G A95C C99A C104U A105G G110C | -6.76
92 | G17C U54G G61A C94A U112G | -6.29
93 | G17C U78A A111U | -6.19
94 | G17C U129A | -5.13
95 | G17C U133G G135U | -3.94
96 | G17U A29G A37U U112G | -3.31

Row | Variant | polymerase ribozyme fitness (log ratio)
97 | G17U A37C C53A A83U A90U A91C | -3.91
98 | G17U A37U G60A C82U | -2.4
99 | G17U A41C G61A C89A | -4.06
100 | G17U A46U C53G G63C A83C C85G C89U A121C C123U U126A | -6.58
101 | G17U C20G G52A G113A A119G | -2.03
102 | G17U C20U A26G G42C A83U C124U U130G | -5.83
103 | G17U C20U C49A C73G C115A | -1.32
104 | G17U C40A G48U C70U C99A G113A G117C | -6.87
105 | G17U C49U C124G G127C | -0.942
106 | G17U C49U G93A | -4.22
107 | G17U C62G A83U C123G | -5.79
108 | G17U C70A C88A A90G | -4.06
109 | G17U C70G | -4.78
110 | G17U C72U C89A | -3.71
111 | G17U C97U | -3.45
112 | G17U C123A | -1.2
113 | G17U G19U G69U A84U G93A | -4.27
114 | G17U G42U G45A G69C U81G C86A C94U C99A A121C | -6.32
115 | G17U G47U | -5.05
116 | G17U G48A A50U G61C G93A U106A | -5.21
117 | G17U G48U C115G G120A | -1.53
118 | G17U G52C C72U | -2.43
119 | G17U G60C A121G | -0.0519
120 | G17U G61C | -3.76

Row | Variant | polymerase ribozyme fitness (log ratio)
121 | G17U G63A U81A G110C | -6.98
122 | G17U G63C | -3.04
123 | G17U G63U C73U | -4.41
124 | G17U G63U U133A | -3.87
125 | G17U G69U A84C C124A | 1.63
126 | G17U G69U A111G U133G | 0.0717
127 | G17U G71A G135U | -4.32
128 | G17U G71U | -2.1
129 | G17U G110C | -7.86
130 | G17U U21G G47C C115A | -1.81
131 | G17U U38G G45A C88U C101U | -2.92
132 | G17U U59C A108G A118U | -5.03
133 | A18C A24G G58A U92C | -5.73
134 | A18C A29U | -4.04
135 | A18C A29U C88U C89U C97U | -4.49
136 | A18C A37G G110C | -6.11
137 | A18C A37U G48A | -3.12
138 | A18C A43G C114U U129C | -3.16
139 | A18C A43U | 0.3
140 | A18C A66U | -5.53
141 | A18C A95U C124A | -0.947
142 | A18C A100C | -4.31
143 | A18C C20A G93A G113A C124U U126G | -4.14
144 | A18C C40U G48A C56G A84C C114U | -5.13

Row | Variant | polymerase ribozyme fitness (log ratio)
145 | A18C C53U A121U | -0.907
146 | A18C C53U C70U | -4.83
147 | A18C C56A C82A C94U U106C | -4.93
148 | A18C C56G C72U | -1.24
149 | A18C C56G C72U C124U | -0.737
150 | A18C C56U U132A | -2.9
151 | A18C C62G U87C A90C G110C C115A | -7
152 | A18C C62U | -2.83
153 | A18C C62U U87C | -3.61
154 | A18C C72U G113C | -3.97
155 | A18C C82A A84U | -3.72
156 | A18C C86G | -3.25
157 | A18C C89G U116C C124A | -0.0811
158 | A18C C114U | -3.82
159 | A18C C124U | -1.22
160 | A18C G19U C72G C102A C104G U106A C123G | -5.8
161 | A18C G25U A41G C53U C124A | -6.92
162 | A18C G36U | -4.02
163 | A18C G39U C101A | -3.85
164 | A18C G44A G61U C85G A121U | -2.31
165 | A18C G47A A121U | -1.35
166 | A18C G48A A119G G120A U126A | -3.21
167 | A18C G48A C94G | -3.96
